Data on 5 molecules can be found in article PMC12214019, “Mechanistic insights into direct DNA and RNA strand transfer and dynamic protein exchange of SSB and RPA”.

For data set [1], the target named is T1, RPA (yeast) (Saccharomyces cerevisiae, UniProt P22336;P26754;P26755 1-621;1-273;1-122). The experiment in a line: competition (smFRET strand transfer); from dT70-RPA, 100 mM NaCl; 9.1±0.4e4 M-1 s-1; 10 mM Tris-HCl pH 7.5, 100 or 300 mM NaCl, 10% glycerol, 10 mM Trolox, 0.5% glucose, glucose oxidase/catalase, ~23 C. The conditions noted are these: protein: recombinant; copies: 1;1;1.
T1 sequence (P22336 whole entry, chain 1 of 3): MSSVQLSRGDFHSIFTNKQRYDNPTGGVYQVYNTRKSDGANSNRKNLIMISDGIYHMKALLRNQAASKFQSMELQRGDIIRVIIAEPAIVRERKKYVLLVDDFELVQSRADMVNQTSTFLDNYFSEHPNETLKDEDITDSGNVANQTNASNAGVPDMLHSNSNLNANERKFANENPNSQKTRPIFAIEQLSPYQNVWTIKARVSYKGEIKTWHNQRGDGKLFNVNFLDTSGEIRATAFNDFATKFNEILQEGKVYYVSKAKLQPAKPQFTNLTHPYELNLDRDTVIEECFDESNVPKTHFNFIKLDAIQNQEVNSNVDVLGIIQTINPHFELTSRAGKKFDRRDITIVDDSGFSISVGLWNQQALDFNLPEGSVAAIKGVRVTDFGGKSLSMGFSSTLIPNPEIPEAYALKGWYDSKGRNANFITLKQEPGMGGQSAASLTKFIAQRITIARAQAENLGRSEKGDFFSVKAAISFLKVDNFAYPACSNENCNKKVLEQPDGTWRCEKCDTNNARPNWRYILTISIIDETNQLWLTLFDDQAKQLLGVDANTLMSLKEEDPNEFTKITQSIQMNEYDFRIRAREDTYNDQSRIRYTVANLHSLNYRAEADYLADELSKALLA
T1 sequence (P26754 whole entry, chain 2 of 3): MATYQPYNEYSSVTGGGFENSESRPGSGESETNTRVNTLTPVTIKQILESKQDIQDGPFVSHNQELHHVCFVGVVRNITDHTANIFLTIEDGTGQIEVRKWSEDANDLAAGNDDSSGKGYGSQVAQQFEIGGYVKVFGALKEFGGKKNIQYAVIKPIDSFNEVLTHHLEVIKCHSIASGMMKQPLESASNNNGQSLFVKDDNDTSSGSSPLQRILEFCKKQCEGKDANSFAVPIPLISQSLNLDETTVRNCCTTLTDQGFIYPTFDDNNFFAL
T1 sequence (P26755 whole entry, chain 3 of 3): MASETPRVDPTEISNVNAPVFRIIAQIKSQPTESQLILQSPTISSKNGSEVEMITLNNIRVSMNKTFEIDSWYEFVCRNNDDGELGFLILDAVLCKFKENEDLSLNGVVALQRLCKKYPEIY

For data set [2], the target named is T2, SSB (UniProt P0AGE0 2-178). The experiment in a line: competition (smFRET strand transfer); from dT70-SSB, 300 mM NaCl; 6.1±0.1e4 M-1 s-1; 10 mM Tris-HCl pH 7.5, 100 or 300 mM NaCl, 10% glycerol, 10 mM Trolox, 0.5% glucose, glucose oxidase/catalase, ~23 C. The conditions noted are these: protein: recombinant; chain copies: 4.
T2 sequence (P0AGE0 2-178): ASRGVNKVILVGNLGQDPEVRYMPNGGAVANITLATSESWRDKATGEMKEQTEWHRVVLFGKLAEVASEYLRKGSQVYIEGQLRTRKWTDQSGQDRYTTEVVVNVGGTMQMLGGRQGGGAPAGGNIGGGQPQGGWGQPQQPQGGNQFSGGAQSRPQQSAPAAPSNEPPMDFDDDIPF
Data set [3] has as its target T1, RPA (yeast). The experiment in a line: competition (smFRET strand transfer); 100 nM competitor from dT40-RPA; rate jumps between dT20 and dT30; 10 mM Tris-HCl pH 7.5, 100 or 300 mM NaCl, 10% glycerol, 10 mM Trolox, 0.5% glucose, glucose oxidase/catalase, ~23 C. Particulars: protein: recombinant; copies: 1;1;1.
Data set [4] addresses T1, RPA (yeast). The data set can be described thus: competition (smFRET strand transfer); from U50-RPA, 100 mM NaCl; 4.3±0.4e5 M-1 s-1; 10 mM Tris-HCl pH 7.5, 100 or 300 mM NaCl, 10% glycerol, 10 mM Trolox, 0.5% glucose, glucose oxidase/catalase, ~23 C. The conditions noted are these: protein: recombinant; copies: 1;1;1.
Data set [5] addresses T2, SSB. The experiment in a line: competition (smFRET strand transfer); from U50-SSB, 100 mM NaCl; 2.1±0.2e5 M-1 s-1; 10 mM Tris-HCl pH 7.5, 100 or 300 mM NaCl, 10% glycerol, 10 mM Trolox, 0.5% glucose, glucose oxidase/catalase, ~23 C. The conditions noted are these: protein: recombinant; chain copies: 4.
The target of data set [6] is T2, SSB. The experiment in a line: competition (smFRET strand transfer); from dT40-SSB, 100 mM NaCl; 9.8±0.2e4 M-1 s-1; 10 mM Tris-HCl pH 7.5, 100 or 300 mM NaCl, 10% glycerol, 10 mM Trolox, 0.5% glucose, glucose oxidase/catalase, ~23 C. The conditions noted are these: protein: recombinant; chain copies: 4.
Data set [7] deals with T1, RPA (yeast). The data set can be described thus: competition (smFRET strand transfer); from dT40-RPA, 100 mM NaCl; 8.6±0.3e4 M-1 s-1; 10 mM Tris-HCl pH 7.5, 100 or 300 mM NaCl, 10% glycerol, 10 mM Trolox, 0.5% glucose, glucose oxidase/catalase, ~23 C. The conditions noted are these: protein: recombinant; copies: 1;1;1.
Data set [8] deals with hRPA (Homo sapiens, UniProt P27694;P15927;P35244 1-616;1-270;1-121). The experiment in a line: competition (smFRET strand transfer); from dT40-hRPA, 100 mM NaCl; 8.3±0.6e4 M-1 s-1; 10 mM Tris-HCl pH 7.5, 100 or 300 mM NaCl, 10% glycerol, 10 mM Trolox, 0.5% glucose, glucose oxidase/catalase, ~23 C. The conditions noted are these: protein: recombinant; copies: 1;1;1.
Chain of hRPA (P27694 whole entry, chain 1 of 3): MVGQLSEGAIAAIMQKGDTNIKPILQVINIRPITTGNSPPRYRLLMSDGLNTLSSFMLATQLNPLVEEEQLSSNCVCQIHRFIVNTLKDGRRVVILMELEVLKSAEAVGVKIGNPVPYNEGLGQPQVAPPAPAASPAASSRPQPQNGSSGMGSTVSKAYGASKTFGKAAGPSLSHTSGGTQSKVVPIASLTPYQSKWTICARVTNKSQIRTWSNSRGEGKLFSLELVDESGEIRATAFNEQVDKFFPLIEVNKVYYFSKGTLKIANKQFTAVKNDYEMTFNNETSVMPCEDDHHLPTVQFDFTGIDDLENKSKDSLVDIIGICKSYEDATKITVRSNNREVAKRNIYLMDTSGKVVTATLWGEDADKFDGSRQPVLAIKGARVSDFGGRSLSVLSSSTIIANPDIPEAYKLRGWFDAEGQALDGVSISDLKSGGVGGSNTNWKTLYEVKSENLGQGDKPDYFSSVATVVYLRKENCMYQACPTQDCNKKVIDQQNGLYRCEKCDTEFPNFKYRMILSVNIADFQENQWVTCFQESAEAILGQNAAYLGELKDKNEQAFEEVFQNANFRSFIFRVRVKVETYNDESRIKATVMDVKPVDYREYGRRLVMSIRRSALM
Chain of hRPA (P15927 whole entry, chain 2 of 3): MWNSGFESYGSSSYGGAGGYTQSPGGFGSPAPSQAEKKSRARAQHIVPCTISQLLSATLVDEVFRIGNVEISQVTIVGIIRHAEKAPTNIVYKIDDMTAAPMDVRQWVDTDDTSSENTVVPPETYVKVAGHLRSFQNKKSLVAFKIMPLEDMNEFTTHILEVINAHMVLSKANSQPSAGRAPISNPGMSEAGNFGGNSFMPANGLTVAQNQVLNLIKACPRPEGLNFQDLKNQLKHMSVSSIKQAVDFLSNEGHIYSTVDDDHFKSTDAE
Chain of hRPA (P35244 whole entry, chain 3 of 3): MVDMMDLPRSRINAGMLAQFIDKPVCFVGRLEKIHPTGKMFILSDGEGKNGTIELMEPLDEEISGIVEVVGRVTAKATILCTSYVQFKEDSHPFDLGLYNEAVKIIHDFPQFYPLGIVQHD
Data set [9] deals with T2, SSB. The data set can be described thus: single-molecule FRET; 3 nM, ternary intermediate with dT40-SSB, dwell ~0.31 s, 100 mM NaCl; 10 mM Tris-HCl pH 7.5, 100 or 300 mM NaCl, 10% glycerol, 10 mM Trolox, 0.5% glucose, glucose oxidase/catalase, ~23 C. The conditions noted are these: protein: recombinant; chain copies: 4; label: 3' Cy3.
Data set [10] addresses T1, RPA (yeast). The data set can be described thus: single-molecule FRET; 3 nM, ternary intermediate with dT40-RPA, dwell ~0.27 s, 100 mM NaCl; 10 mM Tris-HCl pH 7.5, 100 or 300 mM NaCl, 10% glycerol, 10 mM Trolox, 0.5% glucose, glucose oxidase/catalase, ~23 C. The conditions noted are these: protein: recombinant; copies: 1;1;1; label: 3' Cy3.

B1: dT60 (ssDNA)
DNA: TTTTTTTTTTTTTTTTTTTTTTTTTTTTTTTTTTTTTTTTTTTTTTTTTTTTTTTTTTTT
For the molecule B1, the binding result in data set [1] and in data set [2] was “binds” each time.

With TTTTTTTTTTTTTTTTTTTTTTTTTTTTTT (ssDNA) [dT30], the binding result in data set [3] is on record as “binds”.

UUUUUUUUUUUUUUUUUUUUUUUUUUUUUUUUUUUUUUUUUUUUUUUUUU (ssRNA) [U50]: the binding result in [4] and in data set [5] was “binds” in each case.

In the case of TTTTTTTTTTTTTTTTTTTTTTTTTTTTTTTTTTTTTTTT (ssDNA) [dT40], the binding result in data set [6], in data set [7] and in data set [8] was “binds” each time.

Turning to TTTTTTTTTTTTTTTTTTTTTTTTTTTTTTTTTTTTTTTT (ssDNA) [dT40-Cy3], the binding result in data set [9] and in data set [10] was “binds” each time.
